Source: publication PMC3139367 (Journal of molecular biology, 2011)
Positions count from the first letter of the chain named. Like-named read-outs stand apart in the source and are kept apart here.

Key:
[1] = biological target: p300/CBP KIX (UniProt Q92793); settings: cited from earlier work
[2] = biological target: T1, GST-KIX (aa 588-683, from mouse CBP) (mouse, UniProt P45481 588-683); test: native gel or EMSA
[3] = biological target: T1, GST-KIX (aa 588-683, from mouse CBP); test: native gel or EMSA; remark: listed apart in the source
[4] = biological target: untagged KIX (aa 587-679, from mouse CBP) (mouse, UniProt P45481 587-679); test: cross-linking
Sequence of untagged KIX (aa 587-679, from mouse CBP) (P45481 587-679): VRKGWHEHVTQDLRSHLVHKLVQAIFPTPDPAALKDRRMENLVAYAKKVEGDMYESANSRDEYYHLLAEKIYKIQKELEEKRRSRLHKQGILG

T1 sequence (P45481 588-683): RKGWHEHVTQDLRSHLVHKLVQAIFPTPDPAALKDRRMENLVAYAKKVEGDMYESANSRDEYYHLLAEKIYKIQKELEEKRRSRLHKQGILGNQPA
Sequence of p300/CBP KIX (Q92793 587-666): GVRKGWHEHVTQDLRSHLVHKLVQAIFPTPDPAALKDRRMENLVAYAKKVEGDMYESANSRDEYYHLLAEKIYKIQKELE

CREB (from UniProt P16220)
Kd [1]: 108000 nM

B1: Gal4-HBZ-AD wt (Gal4-DBD aa 1-147 fused to the N-terminus of HBZ-AD aa 1-77) (domain or fragment)
chain: MAASGLFRCLPVSCPEDLLVEELVDGLLSLEEELKDKEEEEAVLDGLLSLEEESRGRLRRGPPGEKAPPRGETHRDR
Kd [2]: 3 ± 0.5 nM

B2: Gal4-HBZ-Mut-AD2 (domain or fragment)
chain: B1 chain with L47A, L48A
Kd [3]: 180 nM

B3: HBZ-AD wt (aa 1-77, without the Gal4-DBD fusion) (domain or fragment)
chain: B1 chain
stoichiometry N [4]: 1

B4: Gal4-HBZ-Mut-AD1 (domain or fragment)
chain: B1 chain with L27A, L28A
Kd [3]: 800 nM
